Molecular target: GADS (UniProt O75791)
Test: anti-FLAG co-IP, Western blot
Details: reference: wild-type FLT3

Substance	binding against the reference (sites Y955,Y969)	binding against the reference (sites Y955)
FLT3 (from UniProt P36888) FLT3-Y955F-Y969F	lost	–
FLT3 (from UniProt P36888) FLT3-Y955F	–	weaker
